Measurements from the supplement of paper PMC10065799, “High-throughput profiling of sequence recognition by tyrosine kinases and SH2 domains using bacterial peptide display” (eLife, 2023).

Tests used:
AncSZ = assay: phosphorylation enrichment, bacterial display (enrichment ratio); higher = better substrate or ligand; peptides without Tyr show the background
EPHB1 = EPHB1 (UniProt P54762); assay: as above
EPHB2 = EPHB2 (UniProt P29323); assay: as above
FGFR1 = FGFR1 (UniProt P11362); assay: as above
Chain of FGFR1 (P11362 whole entry, looked up): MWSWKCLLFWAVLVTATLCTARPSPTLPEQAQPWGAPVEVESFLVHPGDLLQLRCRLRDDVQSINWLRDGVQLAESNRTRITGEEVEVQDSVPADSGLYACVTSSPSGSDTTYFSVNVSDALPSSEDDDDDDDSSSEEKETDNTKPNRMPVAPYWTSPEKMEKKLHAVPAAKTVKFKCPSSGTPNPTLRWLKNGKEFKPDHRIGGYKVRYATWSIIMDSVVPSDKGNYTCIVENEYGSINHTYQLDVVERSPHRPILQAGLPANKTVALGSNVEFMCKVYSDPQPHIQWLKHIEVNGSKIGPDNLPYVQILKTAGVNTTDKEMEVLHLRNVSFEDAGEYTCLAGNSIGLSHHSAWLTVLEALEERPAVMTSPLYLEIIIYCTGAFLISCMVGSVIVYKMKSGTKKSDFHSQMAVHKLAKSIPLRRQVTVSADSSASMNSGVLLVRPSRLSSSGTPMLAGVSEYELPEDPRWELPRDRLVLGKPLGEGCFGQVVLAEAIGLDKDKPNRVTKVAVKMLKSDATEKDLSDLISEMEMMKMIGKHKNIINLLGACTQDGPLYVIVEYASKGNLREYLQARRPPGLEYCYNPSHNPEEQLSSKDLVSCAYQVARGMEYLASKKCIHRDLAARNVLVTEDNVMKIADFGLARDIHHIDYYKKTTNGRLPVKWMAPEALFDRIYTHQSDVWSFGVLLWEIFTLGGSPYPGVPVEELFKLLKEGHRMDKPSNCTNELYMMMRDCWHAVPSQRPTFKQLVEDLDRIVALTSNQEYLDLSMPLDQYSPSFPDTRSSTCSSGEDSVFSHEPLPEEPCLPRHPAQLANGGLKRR

FGFR3 = FGFR3 (UniProt P22607); assay: as above
Fer (mouse) = assay: as above
Fes = Fes (UniProt P07332); assay: as above
Fyn = Fyn (UniProt P06241); assay: as above
Chain of Fyn (P06241 whole entry, looked up): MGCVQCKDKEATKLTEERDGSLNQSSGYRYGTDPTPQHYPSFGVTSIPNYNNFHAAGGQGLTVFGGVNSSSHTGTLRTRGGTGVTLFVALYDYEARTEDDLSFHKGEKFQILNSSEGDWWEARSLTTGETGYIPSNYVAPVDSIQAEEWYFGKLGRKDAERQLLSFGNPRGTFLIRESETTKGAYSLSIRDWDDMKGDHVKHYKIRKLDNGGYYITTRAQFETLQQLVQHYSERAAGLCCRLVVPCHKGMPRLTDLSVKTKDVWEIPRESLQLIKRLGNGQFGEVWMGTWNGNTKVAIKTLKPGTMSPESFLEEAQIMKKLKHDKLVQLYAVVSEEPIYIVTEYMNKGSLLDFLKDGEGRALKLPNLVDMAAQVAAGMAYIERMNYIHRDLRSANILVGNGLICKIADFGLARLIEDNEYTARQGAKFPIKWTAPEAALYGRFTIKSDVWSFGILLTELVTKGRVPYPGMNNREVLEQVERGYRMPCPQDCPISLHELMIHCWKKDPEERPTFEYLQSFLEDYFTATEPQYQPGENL

Hck = Hck (UniProt P08631); assay: as above
Chain of Hck (P08631 whole entry, looked up): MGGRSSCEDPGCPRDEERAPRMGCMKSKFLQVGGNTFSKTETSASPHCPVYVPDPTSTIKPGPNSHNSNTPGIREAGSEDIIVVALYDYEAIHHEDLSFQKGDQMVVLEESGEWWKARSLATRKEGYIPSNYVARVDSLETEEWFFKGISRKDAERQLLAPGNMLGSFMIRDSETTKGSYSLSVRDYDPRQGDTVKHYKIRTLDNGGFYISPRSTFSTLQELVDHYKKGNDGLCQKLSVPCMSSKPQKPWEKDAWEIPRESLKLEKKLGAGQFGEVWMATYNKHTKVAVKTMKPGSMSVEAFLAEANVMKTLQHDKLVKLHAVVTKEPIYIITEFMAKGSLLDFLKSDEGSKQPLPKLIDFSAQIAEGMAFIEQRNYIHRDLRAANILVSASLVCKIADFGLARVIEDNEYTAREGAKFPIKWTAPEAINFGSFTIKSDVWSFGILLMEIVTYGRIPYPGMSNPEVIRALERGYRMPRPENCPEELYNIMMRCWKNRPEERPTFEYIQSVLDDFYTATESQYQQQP

Jak2 = Jak2 (UniProt O60674); assay: as above
Chain of Jak2 (O60674 whole entry, looked up): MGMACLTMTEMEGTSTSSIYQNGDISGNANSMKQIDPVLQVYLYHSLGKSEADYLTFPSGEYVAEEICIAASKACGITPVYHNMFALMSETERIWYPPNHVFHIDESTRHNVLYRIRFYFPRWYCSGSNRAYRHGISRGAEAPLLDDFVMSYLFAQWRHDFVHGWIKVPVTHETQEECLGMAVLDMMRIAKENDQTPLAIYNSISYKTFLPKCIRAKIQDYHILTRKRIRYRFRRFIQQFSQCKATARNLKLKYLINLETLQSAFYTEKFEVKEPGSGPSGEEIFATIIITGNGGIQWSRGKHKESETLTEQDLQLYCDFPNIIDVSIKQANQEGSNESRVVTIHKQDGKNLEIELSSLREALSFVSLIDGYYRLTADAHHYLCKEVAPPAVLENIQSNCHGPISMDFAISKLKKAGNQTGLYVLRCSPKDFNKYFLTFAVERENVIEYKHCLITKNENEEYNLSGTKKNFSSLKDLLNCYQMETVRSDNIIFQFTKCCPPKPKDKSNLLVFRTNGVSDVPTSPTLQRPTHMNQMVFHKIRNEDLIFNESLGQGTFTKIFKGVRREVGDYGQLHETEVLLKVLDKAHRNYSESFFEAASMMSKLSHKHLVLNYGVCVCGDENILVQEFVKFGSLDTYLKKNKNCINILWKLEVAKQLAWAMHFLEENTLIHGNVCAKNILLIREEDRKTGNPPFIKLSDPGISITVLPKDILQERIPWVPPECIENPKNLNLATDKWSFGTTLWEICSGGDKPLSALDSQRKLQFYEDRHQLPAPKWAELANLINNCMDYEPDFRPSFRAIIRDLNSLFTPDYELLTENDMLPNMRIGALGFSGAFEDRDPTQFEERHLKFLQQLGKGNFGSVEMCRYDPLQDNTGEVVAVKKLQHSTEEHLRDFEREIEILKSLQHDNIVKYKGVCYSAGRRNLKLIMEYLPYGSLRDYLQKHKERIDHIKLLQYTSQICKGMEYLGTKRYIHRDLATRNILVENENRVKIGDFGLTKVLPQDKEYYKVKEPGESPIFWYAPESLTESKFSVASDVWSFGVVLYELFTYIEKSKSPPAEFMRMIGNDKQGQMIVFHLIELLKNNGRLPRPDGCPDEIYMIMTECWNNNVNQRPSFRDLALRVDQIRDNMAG

MERTK = MERTK (UniProt Q12866); assay: as above
Chain of MERTK (Q12866 whole entry, looked up): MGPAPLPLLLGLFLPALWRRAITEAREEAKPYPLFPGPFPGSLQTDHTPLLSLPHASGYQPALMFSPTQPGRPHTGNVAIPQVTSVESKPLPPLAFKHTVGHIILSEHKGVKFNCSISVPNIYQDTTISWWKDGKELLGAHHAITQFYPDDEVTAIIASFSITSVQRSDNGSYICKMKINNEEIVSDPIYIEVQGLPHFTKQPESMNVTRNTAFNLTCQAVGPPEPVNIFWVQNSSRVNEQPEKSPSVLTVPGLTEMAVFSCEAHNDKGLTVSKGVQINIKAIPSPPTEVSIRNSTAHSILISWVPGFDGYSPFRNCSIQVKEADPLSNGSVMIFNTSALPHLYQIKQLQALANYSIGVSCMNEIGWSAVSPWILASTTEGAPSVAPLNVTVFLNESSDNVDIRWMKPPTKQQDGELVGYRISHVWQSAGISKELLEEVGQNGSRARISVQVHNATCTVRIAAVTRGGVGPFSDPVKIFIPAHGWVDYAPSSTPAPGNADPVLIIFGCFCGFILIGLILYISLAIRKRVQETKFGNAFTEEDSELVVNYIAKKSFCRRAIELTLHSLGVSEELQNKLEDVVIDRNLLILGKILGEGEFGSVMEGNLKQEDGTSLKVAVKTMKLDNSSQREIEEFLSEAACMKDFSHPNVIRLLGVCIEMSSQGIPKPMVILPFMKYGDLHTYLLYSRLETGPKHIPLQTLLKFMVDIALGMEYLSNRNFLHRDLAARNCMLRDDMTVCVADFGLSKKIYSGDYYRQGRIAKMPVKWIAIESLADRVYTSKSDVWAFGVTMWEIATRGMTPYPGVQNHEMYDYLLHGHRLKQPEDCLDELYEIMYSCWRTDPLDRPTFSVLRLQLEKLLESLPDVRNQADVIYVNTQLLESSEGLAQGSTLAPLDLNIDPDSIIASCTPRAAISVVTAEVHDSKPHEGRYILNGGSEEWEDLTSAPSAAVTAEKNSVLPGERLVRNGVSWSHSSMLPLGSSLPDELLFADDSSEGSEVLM

c-Abl (mouse) = assay: as above
c-Src = assay: as above
Grb2 SH2 = Grb2 SH2 (UniProt P62993); assay: SH2 binding enrichment of the phosphorylated peptide, bacterial display (enrichment ratio); higher = better substrate or ligand; peptides without Tyr show the background
SHP2-C SH2 = assay: as above
c-Src SH2 = assay: as above
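For SH2 binding enrichment of the phosphorylated peptide, bacterial display in this document: peptide library displayed on the E. coli surface as eCPX fusions, selected cells deep-sequenced, score is each peptide's frequency after selection divided by its frequency in the input.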
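For phosphorylation enrichment, bacterial display in this document: 11-residue human phosphosite peptides and single-mutation variants displayed on the E. coli surface, counted by deep sequencing, each peptide's frequency after selection divided by its frequency in the unselected input library; frequency after pTyr selection over input frequency; kinase dosed for 20-30% of maximal phosphorylation in three min.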

Chain of EPHB1 (P54762 whole entry, looked up): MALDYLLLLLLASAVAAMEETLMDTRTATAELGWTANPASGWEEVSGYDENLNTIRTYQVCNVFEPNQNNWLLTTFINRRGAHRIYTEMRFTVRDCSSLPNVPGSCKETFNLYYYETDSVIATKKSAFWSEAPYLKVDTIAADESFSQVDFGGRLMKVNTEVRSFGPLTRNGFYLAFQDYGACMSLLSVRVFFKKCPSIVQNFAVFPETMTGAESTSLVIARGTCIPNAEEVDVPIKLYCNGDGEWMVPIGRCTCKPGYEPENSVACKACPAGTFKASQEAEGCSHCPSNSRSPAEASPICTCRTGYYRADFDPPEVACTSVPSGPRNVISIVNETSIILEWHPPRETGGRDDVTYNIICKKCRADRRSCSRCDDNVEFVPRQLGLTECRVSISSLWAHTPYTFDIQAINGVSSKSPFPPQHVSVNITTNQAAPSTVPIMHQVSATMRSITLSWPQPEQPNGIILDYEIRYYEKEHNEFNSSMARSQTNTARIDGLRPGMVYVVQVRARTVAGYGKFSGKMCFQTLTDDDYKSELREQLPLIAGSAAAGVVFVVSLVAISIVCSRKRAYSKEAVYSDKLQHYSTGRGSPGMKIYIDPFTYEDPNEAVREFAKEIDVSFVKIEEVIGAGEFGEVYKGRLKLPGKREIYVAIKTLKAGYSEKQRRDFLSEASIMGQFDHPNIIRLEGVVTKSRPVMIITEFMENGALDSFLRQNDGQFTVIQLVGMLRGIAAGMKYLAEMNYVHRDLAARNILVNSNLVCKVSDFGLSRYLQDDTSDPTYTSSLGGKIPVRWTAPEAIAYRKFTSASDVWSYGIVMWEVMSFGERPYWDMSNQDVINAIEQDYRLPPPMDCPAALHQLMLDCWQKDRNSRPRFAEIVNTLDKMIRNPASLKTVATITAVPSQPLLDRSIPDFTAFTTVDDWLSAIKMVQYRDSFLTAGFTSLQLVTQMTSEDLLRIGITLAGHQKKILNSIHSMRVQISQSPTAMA

| Sequence | phosphorylation enrichment (AncSZ) | phosphorylation enrichment (EPHB1) | phosphorylation enrichment (EPHB2) | phosphorylation enrichment (FGFR1) | phosphorylation enrichment (FGFR3) | phosphorylation enrichment (Fer (mouse)) | phosphorylation enrichment (Fes) | phosphorylation enrichment (Fyn) | phosphorylation enrichment (Hck) | phosphorylation enrichment (Jak2) | phosphorylation enrichment (MERTK) | phosphorylation enrichment (c-Abl (mouse)) | phosphorylation enrichment (c-Src) | SH2 binding enrichment (Grb2 SH2) | SH2 binding enrichment (SHP2-C SH2) | SH2 binding enrichment (c-Src SH2) |
| --- | --- | --- | --- | --- | --- | --- | --- | --- | --- | --- | --- | --- | --- | --- | --- | --- |
| KNKNRYKNVLP [PTPN11_Y279_I282V] | 0.551 | 0.426 | 0.398 | 0.419 | 0.716 | 0.414 | 0.593 | 0.372 | 0.412 | 0.767 | 0.473 | 0.881 | 0.449 | 0.734 | 0.886 | 0.803 |
| AEYGLYAAMVR [VSX2_Y222_G223A] | 1.65 | 8.53 | 9.84 | 0.639 | 0.895 | 5.05 | 1.4 | 6.68 | 7.14 | 1.16 | 6.46 | 3.28 | 4.7 | 0.82 | 0.574 | 0.485 |
| RSGIFYKPESL [L2HGDH_Y103_H98R_YF] | 0.994 | 0.547 | 0.567 | 0.572 | 0.702 | 0.458 | 0.866 | 0.512 | 0.716 | 0.647 | 0.499 | 0.706 | 0.751 | 0.913 | 0.894 | 0.572 |
| SVVVRYEPPEV [TP53_Y220_P219R] | 0.892 | 0.445 | 0.503 | 0.409 | 0.517 | 0.466 | 0.902 | 0.371 | 0.42 | 0.705 | 0.425 | 0.747 | 0.386 | 0.967 | 0.775 | 0.882 |
| GRLFAYPDTHR [CAT_Y358] | 0.641 | 0.49 | 0.434 | 0.44 | 0.538 | 0.476 | 0.756 | 0.421 | 0.397 | 0.605 | 0.344 | 0.597 | 0.356 | 0.84 | 0.909 | 0.508 |
| RYMELYDLNRD [BBS2_Y648] | 1.41 | 1.52 | 1.05 | 1.04 | 1.24 | 1.14 | 1.41 | 1.67 | 1.89 | 1.4 | 1.32 | 0.993 | 4.49 | 0.989 | 0.8 | 5.58 |
| PSGPTYRGAVP [ASAH1_Y43] | 0.772 | 0.757 | 0.509 | 0.58 | 0.503 | 0.417 | 0.698 | 0.602 | 0.583 | 0.611 | 0.58 | 0.489 | 0.878 | 0.876 | 0.74 | 0.519 |
| DSASAYADEVK [ETNPPL_Y189] | 1.28 | 0.536 | 0.544 | 0.655 | 0.685 | 0.53 | 1.04 | 0.549 | 0.653 | 1.15 | 0.601 | 0.685 | 0.638 | 0.724 | 0.661 | 0.593 |
| AEKPKYQINNI [TJP1_Y1602] | 0.541 | 0.366 | 0.802 | 0.383 | 0.427 | 0.368 | 0.682 | 0.341 | 0.366 | 0.704 | 0.349 | 0.548 | 0.363 | 0.906 | 0.766 | 0.508 |
| GTFEDYVEGLR [MYL6_Y89_YF] | 1.08 | 0.534 | 0.534 | 0.545 | 0.685 | 0.454 | 1.11 | 0.427 | 0.508 | 0.971 | 0.461 | 0.688 | 0.416 | 0.9 | 0.553 | 0.5 |
| NDHHVYLEGTL [ALDOB_Y223] | 0.718 | 0.494 | 0.509 | 0.494 | 0.578 | 0.46 | 0.756 | 0.468 | 0.53 | 0.662 | 0.435 | 0.555 | 0.421 | 0.995 | 0.646 | 1.72 |
| IVEFAYNDKAI [PUM3_Y259_YF] | 0.783 | 0.395 | 0.59 | 0.432 | 0.525 | 0.406 | 0.74 | 0.475 | 0.52 | 0.668 | 0.494 | 0.538 | 0.474 | 0.642 | 0.719 | 0.419 |
| HQEPVYSVAFS [TBL1X_Y509] | 4.16 | 25.8 | 31.1 | 4.88 | 3.89 | 24.1 | 2.74 | 15.6 | 14.2 | 0.688 | 14.5 | 30.7 | 9.13 | 1.08 | 0.856 | 0.533 |
| QITQVYGFYHE [PPP2CA_Y127_D131H] | 0.938 | 0.66 | 0.877 | 0.614 | 0.753 | 0.872 | 1.07 | 10.1 | 7.96 | 1.21 | 3.47 | 0.67 | 8.14 | 1.04 | 1.04 | 1.05 |
| FSMGCYEFSLG [HMGCL_Y198_I200F_YF] | 2.26 | 1.12 | 0.984 | 0.733 | 1.14 | 3 | 1.53 | 0.881 | 0.706 | 1.2 | 0.964 | 1.47 | 1.25 | 0.923 | 0.976 | 0.498 |
